Data: the supplement of paper PMC10065799, “High-throughput profiling of sequence recognition by tyrosine kinases and SH2 domains using bacterial peptide display” (eLife, 2023)

Key:
[1] = biological target: Grb2 SH2 (UniProt P62993); assay: SH2 binding enrichment of the phosphorylated peptide, bacterial display (enrichment ratio); higher = better substrate or ligand; peptides without Tyr show the background
[2] = biological target: c-Src SH2; assay: as above
[3] = biological target: SHP2-C SH2; assay: as above
[4] = biological target: EPHB2 (UniProt P29323); assay: phosphorylation enrichment, bacterial display (enrichment ratio); higher = better substrate or ligand; peptides without Tyr show the background
[5] = biological target: Fyn (UniProt P06241); assay: as above
[6] = biological target: MERTK (UniProt Q12866); assay: as above
[7] = biological target: Jak2 (UniProt O60674); assay: as above
[8] = system: AncSZ; assay: as above
[9] = biological target: FGFR3 (UniProt P22607); assay: as above
[10] = biological target: EPHB1 (UniProt P54762); assay: as above
[11] = biological target: FGFR1 (UniProt P11362); assay: as above
[12] = system: c-Src; assay: as above
[13] = system: c-Abl (mouse); assay: as above
[14] = biological target: Fes (UniProt P07332); assay: as above
[15] = biological target: Hck (UniProt P08631); assay: as above
[16] = system: Fer (mouse); assay: as above
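For SH2 binding enrichment of the phosphorylated peptide, bacterial display in this document: peptide library displayed on the E. coli surface as eCPX fusions, selected cells deep-sequenced, score is each peptide's frequency after selection divided by its frequency in the input.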
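For phosphorylation enrichment, bacterial display in this document: 11-residue human phosphosite peptides and single-mutation variants displayed on the E. coli surface, counted by deep sequencing, each peptide's frequency after selection divided by its frequency in the unselected input library; frequency after pTyr selection over input frequency; kinase dosed for 20-30% of maximal phosphorylation in three min.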

Sequence of Fyn (P06241 whole entry, looked up): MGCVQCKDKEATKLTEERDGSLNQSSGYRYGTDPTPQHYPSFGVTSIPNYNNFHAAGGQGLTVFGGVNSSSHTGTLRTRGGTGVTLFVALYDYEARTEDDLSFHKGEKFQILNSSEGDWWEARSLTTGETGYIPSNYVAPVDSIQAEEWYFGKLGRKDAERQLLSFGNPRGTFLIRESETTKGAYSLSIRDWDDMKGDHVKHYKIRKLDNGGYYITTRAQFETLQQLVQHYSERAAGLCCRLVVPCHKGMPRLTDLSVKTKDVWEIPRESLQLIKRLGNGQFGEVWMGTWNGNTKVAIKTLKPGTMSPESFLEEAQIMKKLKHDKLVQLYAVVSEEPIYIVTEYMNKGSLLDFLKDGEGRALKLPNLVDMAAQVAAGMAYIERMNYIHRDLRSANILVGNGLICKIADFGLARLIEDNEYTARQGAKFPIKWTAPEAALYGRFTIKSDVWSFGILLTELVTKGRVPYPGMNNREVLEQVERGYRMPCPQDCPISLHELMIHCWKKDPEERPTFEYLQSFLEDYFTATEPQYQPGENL
Sequence of Hck (P08631 whole entry, looked up): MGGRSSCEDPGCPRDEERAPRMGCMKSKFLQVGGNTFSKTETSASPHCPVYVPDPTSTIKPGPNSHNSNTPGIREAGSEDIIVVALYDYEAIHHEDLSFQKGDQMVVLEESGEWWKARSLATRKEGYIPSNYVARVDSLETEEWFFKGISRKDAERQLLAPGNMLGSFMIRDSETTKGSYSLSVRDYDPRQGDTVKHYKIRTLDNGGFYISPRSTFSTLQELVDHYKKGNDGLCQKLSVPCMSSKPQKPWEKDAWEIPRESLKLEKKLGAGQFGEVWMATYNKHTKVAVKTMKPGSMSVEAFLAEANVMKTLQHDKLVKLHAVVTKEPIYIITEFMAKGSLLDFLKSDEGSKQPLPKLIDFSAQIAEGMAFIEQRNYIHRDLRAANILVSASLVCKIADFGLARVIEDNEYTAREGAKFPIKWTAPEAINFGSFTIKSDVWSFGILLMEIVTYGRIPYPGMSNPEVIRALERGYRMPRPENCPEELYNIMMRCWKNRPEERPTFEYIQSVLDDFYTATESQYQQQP
Sequence of MERTK (Q12866 whole entry, looked up): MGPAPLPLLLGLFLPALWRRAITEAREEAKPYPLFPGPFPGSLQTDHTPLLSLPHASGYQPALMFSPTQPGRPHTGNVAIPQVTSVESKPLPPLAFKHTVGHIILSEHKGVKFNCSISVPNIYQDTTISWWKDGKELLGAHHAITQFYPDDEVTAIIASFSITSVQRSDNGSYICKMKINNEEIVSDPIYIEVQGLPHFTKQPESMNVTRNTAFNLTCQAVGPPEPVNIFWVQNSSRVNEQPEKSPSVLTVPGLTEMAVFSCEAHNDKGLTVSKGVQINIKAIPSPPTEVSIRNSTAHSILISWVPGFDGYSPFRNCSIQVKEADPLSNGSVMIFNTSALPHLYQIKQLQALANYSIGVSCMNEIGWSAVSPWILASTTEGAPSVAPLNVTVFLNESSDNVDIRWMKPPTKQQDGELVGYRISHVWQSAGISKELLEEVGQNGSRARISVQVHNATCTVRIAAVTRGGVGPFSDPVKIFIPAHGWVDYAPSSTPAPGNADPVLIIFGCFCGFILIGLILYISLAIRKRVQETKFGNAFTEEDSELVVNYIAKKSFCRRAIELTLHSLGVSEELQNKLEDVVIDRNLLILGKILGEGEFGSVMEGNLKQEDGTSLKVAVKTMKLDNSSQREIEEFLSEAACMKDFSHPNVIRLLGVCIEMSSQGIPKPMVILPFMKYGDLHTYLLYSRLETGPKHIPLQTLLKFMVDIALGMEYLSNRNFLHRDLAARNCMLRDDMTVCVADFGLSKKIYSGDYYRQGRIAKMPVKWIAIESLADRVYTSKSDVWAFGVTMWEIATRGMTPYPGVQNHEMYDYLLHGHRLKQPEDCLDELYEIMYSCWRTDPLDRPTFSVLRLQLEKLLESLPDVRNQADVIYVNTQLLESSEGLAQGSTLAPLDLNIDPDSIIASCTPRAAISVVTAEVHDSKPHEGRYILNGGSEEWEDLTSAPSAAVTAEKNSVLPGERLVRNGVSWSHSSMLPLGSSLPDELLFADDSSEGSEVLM
Sequence of FGFR1 (P11362 whole entry, looked up): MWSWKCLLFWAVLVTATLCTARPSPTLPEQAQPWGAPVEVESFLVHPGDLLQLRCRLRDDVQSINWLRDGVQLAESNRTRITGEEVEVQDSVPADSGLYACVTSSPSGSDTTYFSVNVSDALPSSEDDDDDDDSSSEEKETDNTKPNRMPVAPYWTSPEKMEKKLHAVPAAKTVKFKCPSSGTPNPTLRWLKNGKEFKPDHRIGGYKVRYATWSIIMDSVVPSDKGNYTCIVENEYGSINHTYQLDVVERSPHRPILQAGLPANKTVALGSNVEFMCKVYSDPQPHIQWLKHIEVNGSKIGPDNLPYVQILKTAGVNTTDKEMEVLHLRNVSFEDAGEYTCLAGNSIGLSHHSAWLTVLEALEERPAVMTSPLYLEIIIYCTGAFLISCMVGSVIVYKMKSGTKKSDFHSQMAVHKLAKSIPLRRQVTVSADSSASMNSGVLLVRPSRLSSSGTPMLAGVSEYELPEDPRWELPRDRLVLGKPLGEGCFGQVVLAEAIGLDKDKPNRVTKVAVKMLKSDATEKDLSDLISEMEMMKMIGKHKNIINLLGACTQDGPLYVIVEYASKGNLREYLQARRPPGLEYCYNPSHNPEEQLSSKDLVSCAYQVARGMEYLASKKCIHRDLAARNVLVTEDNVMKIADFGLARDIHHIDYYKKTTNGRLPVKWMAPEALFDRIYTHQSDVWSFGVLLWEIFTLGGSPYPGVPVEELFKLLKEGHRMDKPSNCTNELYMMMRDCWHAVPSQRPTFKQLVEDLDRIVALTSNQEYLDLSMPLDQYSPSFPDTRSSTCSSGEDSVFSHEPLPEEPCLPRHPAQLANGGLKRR
Sequence of Jak2 (O60674 whole entry, looked up): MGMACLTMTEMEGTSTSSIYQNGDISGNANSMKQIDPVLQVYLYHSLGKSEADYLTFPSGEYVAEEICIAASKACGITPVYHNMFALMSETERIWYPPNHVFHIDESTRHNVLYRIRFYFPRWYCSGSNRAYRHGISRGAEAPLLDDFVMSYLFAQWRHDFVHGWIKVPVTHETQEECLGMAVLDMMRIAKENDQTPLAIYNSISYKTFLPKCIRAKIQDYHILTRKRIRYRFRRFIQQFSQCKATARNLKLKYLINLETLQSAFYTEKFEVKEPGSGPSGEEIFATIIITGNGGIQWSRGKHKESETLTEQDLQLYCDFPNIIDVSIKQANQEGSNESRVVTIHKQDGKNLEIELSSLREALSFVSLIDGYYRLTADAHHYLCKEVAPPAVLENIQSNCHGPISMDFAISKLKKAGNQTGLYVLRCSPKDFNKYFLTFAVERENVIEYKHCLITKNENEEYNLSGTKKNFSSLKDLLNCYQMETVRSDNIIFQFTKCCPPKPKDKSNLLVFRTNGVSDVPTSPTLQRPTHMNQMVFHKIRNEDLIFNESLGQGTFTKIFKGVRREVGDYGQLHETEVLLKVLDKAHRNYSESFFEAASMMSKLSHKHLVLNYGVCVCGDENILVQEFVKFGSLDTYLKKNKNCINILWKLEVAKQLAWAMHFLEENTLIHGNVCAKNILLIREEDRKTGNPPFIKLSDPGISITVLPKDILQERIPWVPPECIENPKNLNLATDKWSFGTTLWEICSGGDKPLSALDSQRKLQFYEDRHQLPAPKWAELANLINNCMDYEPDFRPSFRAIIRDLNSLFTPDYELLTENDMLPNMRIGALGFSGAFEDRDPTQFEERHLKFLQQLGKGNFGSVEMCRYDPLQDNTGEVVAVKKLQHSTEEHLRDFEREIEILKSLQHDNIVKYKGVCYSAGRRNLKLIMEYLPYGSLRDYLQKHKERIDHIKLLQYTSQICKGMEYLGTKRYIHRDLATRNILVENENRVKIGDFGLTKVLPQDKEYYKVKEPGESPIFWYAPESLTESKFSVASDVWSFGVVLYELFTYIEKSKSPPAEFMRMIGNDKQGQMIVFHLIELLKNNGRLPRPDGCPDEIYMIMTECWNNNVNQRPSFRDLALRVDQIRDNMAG
Sequence of EPHB1 (P54762 whole entry, looked up): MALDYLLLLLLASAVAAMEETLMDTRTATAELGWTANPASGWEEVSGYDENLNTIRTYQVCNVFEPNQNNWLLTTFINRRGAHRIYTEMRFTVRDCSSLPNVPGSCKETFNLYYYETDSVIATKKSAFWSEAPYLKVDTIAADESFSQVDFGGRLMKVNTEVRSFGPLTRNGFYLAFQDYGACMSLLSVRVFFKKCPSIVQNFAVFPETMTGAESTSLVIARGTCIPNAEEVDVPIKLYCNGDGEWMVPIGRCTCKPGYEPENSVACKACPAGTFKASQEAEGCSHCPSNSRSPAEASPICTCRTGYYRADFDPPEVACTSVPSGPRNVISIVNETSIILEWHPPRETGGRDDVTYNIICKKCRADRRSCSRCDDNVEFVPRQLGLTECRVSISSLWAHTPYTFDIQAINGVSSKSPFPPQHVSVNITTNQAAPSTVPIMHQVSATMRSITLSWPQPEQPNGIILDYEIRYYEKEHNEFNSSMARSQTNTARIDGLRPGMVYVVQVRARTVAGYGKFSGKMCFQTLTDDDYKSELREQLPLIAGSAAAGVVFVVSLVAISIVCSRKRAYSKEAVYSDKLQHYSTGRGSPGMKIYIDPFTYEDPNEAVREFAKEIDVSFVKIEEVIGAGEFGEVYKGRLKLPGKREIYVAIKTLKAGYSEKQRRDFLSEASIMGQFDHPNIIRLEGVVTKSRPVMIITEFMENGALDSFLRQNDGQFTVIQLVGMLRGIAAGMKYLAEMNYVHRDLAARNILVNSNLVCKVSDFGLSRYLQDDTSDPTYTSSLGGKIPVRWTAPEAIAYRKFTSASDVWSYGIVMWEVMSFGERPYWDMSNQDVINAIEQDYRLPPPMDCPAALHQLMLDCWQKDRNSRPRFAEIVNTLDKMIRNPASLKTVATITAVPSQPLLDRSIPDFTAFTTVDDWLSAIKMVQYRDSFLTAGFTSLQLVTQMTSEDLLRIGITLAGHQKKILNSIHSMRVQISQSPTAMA

| Sequence | SH2 binding enrichment [1] | SH2 binding enrichment [2] | SH2 binding enrichment [3] | phosphorylation enrichment [4] | phosphorylation enrichment [5] | phosphorylation enrichment [6] | phosphorylation enrichment [7] | phosphorylation enrichment [8] | phosphorylation enrichment [9] | phosphorylation enrichment [10] | phosphorylation enrichment [11] | phosphorylation enrichment [12] | phosphorylation enrichment [13] | phosphorylation enrichment [14] | phosphorylation enrichment [15] | phosphorylation enrichment [16] |
| --- | --- | --- | --- | --- | --- | --- | --- | --- | --- | --- | --- | --- | --- | --- | --- | --- |
| EKEKEYMLPLD [DNM2_Y563_K562E] | 0.834 | 0.581 | 0.729 | 0.414 | 0.421 | 0.442 | 0.743 | 1.1 | 0.604 | 0.48 | 0.443 | 0.358 | 0.479 | 0.959 | 0.469 | 0.388 |
| QLDQRYLLVPE [DDX49_Y223] | 0.754 | 0.763 | 0.715 | 0.807 | 0.574 | 0.572 | 0.748 | 1.12 | 0.799 | 0.613 | 0.843 | 0.701 | 0.665 | 0.978 | 0.664 | 0.374 |
| ISKKIYDPIHD [CTNNA3_Y614_T616P] | 0.691 | 0.426 | 0.648 | 0.475 | 0.636 | 0.455 | 0.516 | 0.57 | 0.529 | 0.48 | 0.436 | 0.541 | 0.445 | 0.694 | 0.731 | 0.446 |
| SSREGYVRHHN [FAM83B_Y433_S435R] | 0.956 | 0.592 | 0.573 | 0.445 | 0.377 | 0.409 | 0.672 | 0.482 | 0.473 | 0.309 | 0.416 | 0.38 | 0.451 | 0.435 | 0.387 | 0.501 |
| SIRYNYLLDVL [FGFR4_Y237] | 0.789 | 1.7 | 0.747 | 0.524 | 0.495 | 0.509 | 0.674 | 0.943 | 0.636 | 0.394 | 0.479 | 0.443 | 0.821 | 0.745 | 0.603 | 0.47 |
| ILGRFYETGSI [PAX2_Y73_YF] | 0.85 | 1.17 | 1.17 | 0.515 | 0.5 | 0.428 | 0.566 | 0.737 | 0.578 | 0.489 | 0.423 | 0.414 | 0.52 | 0.779 | 0.451 | 0.4 |
| MEKEKYVSYIS [JMJD1C_Y596] | 0.612 | 0.432 | 0.815 | 0.509 | 0.471 | 0.413 | 0.921 | 0.795 | 0.672 | 0.571 | 0.401 | 0.5 | 0.629 | 1.11 | 0.442 | 0.397 |
| ISKKRYAGLLF [POLD1_Y809] | 0.695 | 0.449 | 0.653 | 0.471 | 0.448 | 0.466 | 0.658 | 0.539 | 0.467 | 0.415 | 0.57 | 0.462 | 0.52 | 0.507 | 0.519 | 0.307 |
| QMQNPYSRHSS [MUC13_Y501] | 0.974 | 0.558 | 0.758 | 0.416 | 0.418 | 0.346 | 0.468 | 0.521 | 0.495 | 0.363 | 0.572 | 0.472 | 0.57 | 0.584 | 0.544 | 0.648 |
| VKYLGYPPPEI [KDR_Y357_A352V] | 0.896 | 0.495 | 1.84 | 0.491 | 0.486 | 0.427 | 0.489 | 0.7 | 0.626 | 0.468 | 0.666 | 0.403 | 0.796 | 0.719 | 0.451 | 0.37 |
| RISPEYKQNEI [GJB1_Y243_L239I] | 0.944 | 0.412 | 1.15 | 0.73 | 0.922 | 0.598 | 0.983 | 1.15 | 0.836 | 0.998 | 0.866 | 0.604 | 1.06 | 1.07 | 0.607 | 0.687 |
| DIPIRYSITGV [CDH4_Y205] | 0.774 | 0.53 | 0.972 | 0.474 | 0.447 | 0.405 | 0.85 | 0.822 | 0.478 | 0.391 | 0.444 | 0.367 | 0.641 | 0.827 | 0.45 | 0.402 |
| CPPKVYELMIA [ABL2_Y515_R519I] | 0.817 | 1.44 | 0.658 | 2.25 | 0.916 | 5.18 | 1.2 | 1.24 | 0.959 | 7.46 | 1.34 | 1.99 | 0.766 | 1.34 | 1.03 | 7.5 |
| WTAHSYRMGSA [ARHGEF7_Y785_T790A] | 0.96 | 0.545 | 0.794 | 0.457 | 0.503 | 0.377 | 0.679 | 0.683 | 0.438 | 0.477 | 0.556 | 0.48 | 0.495 | 0.736 | 0.443 | 0.38 |
| INNIDYFKKTT [FGFR2_Y656_YF] | 0.893 | 0.445 | 0.598 | 0.415 | 0.409 | 0.37 | 0.605 | 0.768 | 0.64 | 0.46 | 0.567 | 0.5 | 0.373 | 0.648 | 0.567 | 0.36 |
| ACDALYPPGPP | 1.07 | 0.632 | 1.11 | 0.432 | 0.482 | 0.43 | 0.615 | 0.774 | 0.522 | 0.485 | 0.482 | 0.444 | 0.566 | 0.861 | 0.391 | 0.469 |
| LSSEMYVKSYT [F5_Y2149] | 0.89 | 0.479 | 0.609 | 2.05 | 1.2 | 0.76 | 1.12 | 1.46 | 1.12 | 1.14 | 1.27 | 0.73 | 0.733 | 1.56 | 0.991 | 0.771 |
| CDKEYYSVHNK [MET_Y1235_Y1230C] | 0.655 | 0.51 | 0.553 | 0.69 | 0.608 | 0.573 | 1.32 | 2.06 | 2.09 | 0.734 | 2.49 | 0.761 | 0.949 | 1.2 | 0.788 | 0.601 |
| ETEMLYGSARR [PRC1_Y464_P468R] | 0.853 | 0.495 | 0.871 | 0.451 | 2.66 | 0.38 | 0.521 | 0.886 | 0.601 | 0.416 | 0.429 | 2.81 | 0.638 | 0.78 | 4.55 | 1.27 |
| MKALGYFAVVK [OPA1_Y498_T503K] | 0.792 | 0.595 | 0.913 | 0.569 | 0.464 | 0.439 | 1 | 1.05 | 0.692 | 0.507 | 0.51 | 0.397 | 0.767 | 1.25 | 0.48 | 0.596 |
| EPSLDYMVTKI [CPS1_Y768] | 1.05 | 0.379 | 0.914 | 0.727 | 0.646 | 0.469 | 1.05 | 1.22 | 0.797 | 0.756 | 0.814 | 0.582 | 0.606 | 1.14 | 0.566 | 0.78 |
| MGRVNYGAFIN [GLB1_Y485_YF] | 0.903 | 0.585 | 0.969 | 0.498 | 0.408 | 0.426 | 0.616 | 0.567 | 0.496 | 0.399 | 0.398 | 0.562 | 0.472 | 0.707 | 0.422 | 0.382 |

Further lines, with some results ahead:

| SH2 binding enrichment [1] | SH2 binding enrichment [2] | SH2 binding enrichment [3] | Sequence | phosphorylation enrichment [4] | phosphorylation enrichment [5] | phosphorylation enrichment [6] | phosphorylation enrichment [7] | phosphorylation enrichment [8] | phosphorylation enrichment [9] | phosphorylation enrichment [10] | phosphorylation enrichment [11] | phosphorylation enrichment [12] | phosphorylation enrichment [13] | phosphorylation enrichment [14] | phosphorylation enrichment [15] | phosphorylation enrichment [16] |
| --- | --- | --- | --- | --- | --- | --- | --- | --- | --- | --- | --- | --- | --- | --- | --- | --- |
| 0.869 | 0.504 | 0.776 | HQNGMYRLHQD [SGSH_Y89_G90R] | 0.745 | 0.42 | 0.414 | 0.933 | 0.814 | 0.661 | 0.741 | 0.521 | 0.5 | 0.549 | 0.971 | 0.461 | 0.66 |
| 1.18 | 1.28 | 1.26 | HAVYVCDICHV [TWNK_Y508_Y508C] | 2.06 | 0.627 | 0.524 | 1.01 | 1.1 | 0.904 | 1.79 | 0.628 | 0.916 | 0.972 | 1.42 | 0.826 | 0.775 |
| 0.7 | 0.695 | 0.509 | RRNNSYTCFTA [SLC20A2_Y386_YF] | 1.65 | 1.19 | 1.3 | 1.95 | 2.81 | 1.33 | 0.96 | 0.886 | 1.69 | 1.86 | 1.68 | 0.771 | 0.734 |
| 1.95 | 1.58 | 2.01 | CTTIHYNFMCF [TP53_Y234_N239Y_YF] | 0.522 | 0.414 | 0.409 | 0.913 | 1.04 | 0.738 | 0.608 | 0.621 | 0.474 | 0.683 | 1.12 | 0.451 | 0.671 |
| 1.06 | 0.644 | 0.95 | DVQNAYDSNHC [ZFYVE16_Y36] | 0.495 | 0.495 | 0.574 | 0.681 | 0.999 | 0.719 | 0.505 | 0.487 | 0.495 | 0.723 | 0.949 | 0.533 | 0.555 |
| 0.924 | 0.669 | 0.802 | CTTIHYNFMWN [TP53_Y234_C238W_YF] | 0.727 | 0.508 | 0.717 | 1.5 | 1.43 | 0.981 | 0.725 | 0.621 | 0.59 | 1.09 | 1.66 | 0.543 | 1.04 |
| 0.815 | 0.41 | 0.654 | GLALRCLSDHS [VWF_Y1584_Y1584C] | 0.559 | 0.515 | 0.422 | 0.961 | 0.86 | 0.711 | 0.592 | 0.551 | 0.503 | 0.718 | 1.16 | 0.59 | 0.518 |
| 0.797 | 0.478 | 0.577 | TTEHIYGDNFF [UBA7_Y524] | 0.514 | 5.55 | 0.597 | 0.671 | 0.776 | 0.552 | 0.458 | 0.417 | 4.18 | 0.754 | 0.882 | 2.41 | 2.38 |
| 0.862 | 0.567 | 0.454 | SSTASYFEAPG [RFX2_Y108] | 0.487 | 0.442 | 0.449 | 0.968 | 0.789 | 3.47 | 0.445 | 4.92 | 0.432 | 0.531 | 0.802 | 0.433 | 0.378 |
| 0.616 | 0.553 | 0.649 | IYGASYVPFAA [RBM47_Y541] | 0.861 | 10 | 6.3 | 2.11 | 0.701 | 0.708 | 0.67 | 0.78 | 6.94 | 9.26 | 0.687 | 7.75 | 7.91 |
| 0.567 | 0.319 | 0.492 | SVTWTYSPALN [TP53_Y126_C124W] | 0.786 | 0.387 | 0.289 | 0.986 | 1.31 | 0.862 | 0.569 | 0.461 | 0.347 | 0.698 | 1.11 | 0.467 | 0.532 |
